According to PMC3176292, “Mutations in Protein-Binding Hot-Spots on the Hub Protein Smad3 Differentially Affect Its Protein Interactions and Smad3-Regulated Gene Expression” (PLoS ONE, 2011):

T1: Ski Smad-binding domain (amino acids 2–56) on the 3xFlag-thioredoxin scaffold (UniProt P12755 2-56)
T1 construct: Ski, amino acids 2–56; cloned into the unique RsrII site of pCI-3xFLAG-Trx; also called Ski aa2–56; TrxSki; source: HEK-293, transfected, in lysate
T1 sequence (looked up): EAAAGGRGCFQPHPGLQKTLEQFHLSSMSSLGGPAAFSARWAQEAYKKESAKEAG

T2: SARA Smad-binding domain (amino acids 665–721) on the 3xFlag-thioredoxin scaffold (UniProt O95405 767-823)
T2 construct: SARA, amino acids 665–721; cloned into the unique RsrII site of pCI-3xFLAG-Trx; also called SARA aa665–721; TrxSARA; source: HEK-293, transfected, in lysate
T2 sequence (looked up): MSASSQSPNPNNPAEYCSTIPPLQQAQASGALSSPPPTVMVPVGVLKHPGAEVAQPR

T3: Flag-SARA, full length (UniProt O95405 1-1425)
T3 construct: SARA; plasmid pCMV5b-Flag-SARA; also called SARA FL; source: HEK-293, transfected, in lysate
T3 sequence (looked up): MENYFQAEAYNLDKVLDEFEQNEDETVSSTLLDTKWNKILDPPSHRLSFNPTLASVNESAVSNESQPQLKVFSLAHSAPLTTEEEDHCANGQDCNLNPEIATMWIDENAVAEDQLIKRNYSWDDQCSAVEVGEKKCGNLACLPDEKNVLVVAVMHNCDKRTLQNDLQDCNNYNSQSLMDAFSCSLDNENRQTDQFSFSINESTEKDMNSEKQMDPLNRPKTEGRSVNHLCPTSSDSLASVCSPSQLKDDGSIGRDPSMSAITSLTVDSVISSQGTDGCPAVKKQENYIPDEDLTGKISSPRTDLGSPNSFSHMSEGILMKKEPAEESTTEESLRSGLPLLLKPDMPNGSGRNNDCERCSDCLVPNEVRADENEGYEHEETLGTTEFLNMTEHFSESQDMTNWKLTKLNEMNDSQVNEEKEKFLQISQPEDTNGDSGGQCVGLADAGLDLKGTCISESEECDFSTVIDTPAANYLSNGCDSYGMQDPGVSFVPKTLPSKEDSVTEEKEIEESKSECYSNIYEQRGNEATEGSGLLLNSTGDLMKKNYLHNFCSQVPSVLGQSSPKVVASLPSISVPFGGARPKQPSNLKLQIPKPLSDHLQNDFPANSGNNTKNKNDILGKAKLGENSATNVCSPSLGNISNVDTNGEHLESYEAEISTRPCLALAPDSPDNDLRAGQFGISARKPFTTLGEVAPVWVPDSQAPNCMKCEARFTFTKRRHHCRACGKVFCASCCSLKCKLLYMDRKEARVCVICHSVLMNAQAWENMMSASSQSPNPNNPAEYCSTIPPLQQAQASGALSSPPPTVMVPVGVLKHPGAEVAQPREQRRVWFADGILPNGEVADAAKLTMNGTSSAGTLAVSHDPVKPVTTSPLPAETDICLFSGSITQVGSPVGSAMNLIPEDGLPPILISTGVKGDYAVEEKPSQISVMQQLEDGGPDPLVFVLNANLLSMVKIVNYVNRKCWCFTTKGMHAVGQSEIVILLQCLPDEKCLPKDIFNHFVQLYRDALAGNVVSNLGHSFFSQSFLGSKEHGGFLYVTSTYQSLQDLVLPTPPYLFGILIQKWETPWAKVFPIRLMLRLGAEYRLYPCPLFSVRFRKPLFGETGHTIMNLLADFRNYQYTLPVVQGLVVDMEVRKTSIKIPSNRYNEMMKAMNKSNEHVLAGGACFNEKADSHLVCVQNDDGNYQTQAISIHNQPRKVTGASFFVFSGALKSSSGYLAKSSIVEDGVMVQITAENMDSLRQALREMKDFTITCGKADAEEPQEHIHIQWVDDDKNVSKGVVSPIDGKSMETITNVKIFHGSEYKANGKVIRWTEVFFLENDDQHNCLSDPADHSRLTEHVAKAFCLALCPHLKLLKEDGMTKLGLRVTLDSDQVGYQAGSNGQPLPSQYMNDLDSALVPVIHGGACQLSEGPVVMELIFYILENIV


Tests used:
Assay in all cases: co-IP; LUMIER: Renilla luciferase-Smad3 and Flag-tagged partner co-expressed with constitutively active Alk5 in HEK-293; Flag protein captured from cleared lysate (TNE: 10 mM Tris-HCl pH 7.8, 150 mM NaCl, 1 mM EDTA, 1% Igepal CA-630) on anti-Flag 96-well plates, 2 h at 4 °C; co-precipitated Renilla luciferase activity, TrxGA background subtracted, percent of wild-type Smad3
Settings in all cases: partners not purified
[1] = target: T4, Smurf2 Smad-binding domain (amino acids 252–330) on the Flag-thioredoxin scaffold (UniProt Q9HAU4 252-330)
T4 construct: Smurf2, amino acids 252–330; also called Smurf2 aa252–330; TrxSmurf2; source: HEK-293, transfected, in lysate
T4 sequence (Q9HAU4 252-330): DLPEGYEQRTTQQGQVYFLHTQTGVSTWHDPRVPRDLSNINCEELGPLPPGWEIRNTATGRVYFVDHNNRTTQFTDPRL

[2] = target: T1, Ski Smad-binding domain (amino acids …)
[3] = target: T2, SARA Smad-binding domain (amino acids …)
Flag-SARA, full length = target: T3, Flag-SARA, full length

Row | Binder | percent binding relative to wild-type Smad3 [1] | percent binding relative to wild-type Smad3 [2] | percent binding relative to wild-type Smad3 [3] | percent binding relative to wild-type Smad3 (Flag-SARA, full length)
1 | Renilla luciferase-Smad3 Q322A/Y324A (natural protein, UniProt P84022 1-425, looked up, Smad3; source: HEK-293, transfected together with constitutively active Alk5, in lysate) MSSILPFTPPIVKRLLGWKKGEQNGQEEKWCEKAVKSLVKKLKKTGQLDELEKAITTQNVNTKCITIPRSLDGRLQVSHRKGLPHVIYCRLWRWPDLHSHHELRAMELCEFAFNMKKDEVCVNPYHYQRVETPVLPPVLVPRHTEIPAEFPPLDDYSHSIPENTNFPAGIEPQSNIPETPPPGYLSEDGETSDHQMNHSMDAGSPNLSPNPMSPAHNNLDLQPVTYCEPAFWCSISYYELNQRVGETFHASQPSMTVDGFTDPSNSERFCLGLLSNVNRNAAVELTRRHIGRGVRLYYIGGEVFAECLSDSAIFVQSPNCNARAGWHPATVCKIPPGCNLKIFNNQEFAALLAQSVNQGFEAVYQLTRMCTIRMSFVKGWGAEYRRQTVTSTPCWIELHLNGPLQWLDKVLTQMGSPSIRCSSVS | 308% | 237% | 3% | 12%
2 | Renilla luciferase-Smad3 S254A (natural protein, UniProt P84022 1-425, looked up, Smad3; source: HEK-293, transfected together with constitutively active Alk5, in lysate) MSSILPFTPPIVKRLLGWKKGEQNGQEEKWCEKAVKSLVKKLKKTGQLDELEKAITTQNVNTKCITIPRSLDGRLQVSHRKGLPHVIYCRLWRWPDLHSHHELRAMELCEFAFNMKKDEVCVNPYHYQRVETPVLPPVLVPRHTEIPAEFPPLDDYSHSIPENTNFPAGIEPQSNIPETPPPGYLSEDGETSDHQMNHSMDAGSPNLSPNPMSPAHNNLDLQPVTYCEPAFWCSISYYELNQRVGETFHASQPAMTVDGFTDPSNSERFCLGLLSNVNRNAAVELTRRHIGRGVRLYYIGGEVFAECLSDSAIFVQSPNCNQRYGWHPATVCKIPPGCNLKIFNNQEFAALLAQSVNQGFEAVYQLTRMCTIRMSFVKGWGAEYRRQTVTSTPCWIELHLNGPLQWLDKVLTQMGSPSIRCSSVS | 113% | 10% | 103% | 154%
3 | Renilla luciferase-Smad3 V224A (natural protein, UniProt P84022 1-425, looked up, Smad3; source: HEK-293, transfected together with constitutively active Alk5, in lysate) MSSILPFTPPIVKRLLGWKKGEQNGQEEKWCEKAVKSLVKKLKKTGQLDELEKAITTQNVNTKCITIPRSLDGRLQVSHRKGLPHVIYCRLWRWPDLHSHHELRAMELCEFAFNMKKDEVCVNPYHYQRVETPVLPPVLVPRHTEIPAEFPPLDDYSHSIPENTNFPAGIEPQSNIPETPPPGYLSEDGETSDHQMNHSMDAGSPNLSPNPMSPAHNNLDLQPATYCEPAFWCSISYYELNQRVGETFHASQPSMTVDGFTDPSNSERFCLGLLSNVNRNAAVELTRRHIGRGVRLYYIGGEVFAECLSDSAIFVQSPNCNQRYGWHPATVCKIPPGCNLKIFNNQEFAALLAQSVNQGFEAVYQLTRMCTIRMSFVKGWGAEYRRQTVTSTPCWIELHLNGPLQWLDKVLTQMGSPSIRCSSVS | 320% | 524% | 21% | 42%
4 | Renilla luciferase-Smad3 V356R (natural protein, UniProt P84022 1-425, looked up, Smad3; source: HEK-293, transfected together with constitutively active Alk5, in lysate) MSSILPFTPPIVKRLLGWKKGEQNGQEEKWCEKAVKSLVKKLKKTGQLDELEKAITTQNVNTKCITIPRSLDGRLQVSHRKGLPHVIYCRLWRWPDLHSHHELRAMELCEFAFNMKKDEVCVNPYHYQRVETPVLPPVLVPRHTEIPAEFPPLDDYSHSIPENTNFPAGIEPQSNIPETPPPGYLSEDGETSDHQMNHSMDAGSPNLSPNPMSPAHNNLDLQPVTYCEPAFWCSISYYELNQRVGETFHASQPSMTVDGFTDPSNSERFCLGLLSNVNRNAAVELTRRHIGRGVRLYYIGGEVFAECLSDSAIFVQSPNCNQRYGWHPATVCKIPPGCNLKIFNNQEFAALLAQSRNQGFEAVYQLTRMCTIRMSFVKGWGAEYRRQTVTSTPCWIELHLNGPLQWLDKVLTQMGSPSIRCSSVS | 468% | 2% | 1% | 16%
5 | Renilla luciferase-Smad3 W326A (natural protein, UniProt P84022 1-425, looked up, Smad3; source: HEK-293, transfected together with constitutively active Alk5, in lysate) MSSILPFTPPIVKRLLGWKKGEQNGQEEKWCEKAVKSLVKKLKKTGQLDELEKAITTQNVNTKCITIPRSLDGRLQVSHRKGLPHVIYCRLWRWPDLHSHHELRAMELCEFAFNMKKDEVCVNPYHYQRVETPVLPPVLVPRHTEIPAEFPPLDDYSHSIPENTNFPAGIEPQSNIPETPPPGYLSEDGETSDHQMNHSMDAGSPNLSPNPMSPAHNNLDLQPVTYCEPAFWCSISYYELNQRVGETFHASQPSMTVDGFTDPSNSERFCLGLLSNVNRNAAVELTRRHIGRGVRLYYIGGEVFAECLSDSAIFVQSPNCNQRYGAHPATVCKIPPGCNLKIFNNQEFAALLAQSVNQGFEAVYQLTRMCTIRMSFVKGWGAEYRRQTVTSTPCWIELHLNGPLQWLDKVLTQMGSPSIRCSSVS | 653% | 292% | 4% | 13%
6 | Renilla luciferase-Smad3 W406A (natural protein, UniProt P84022 1-425, looked up, Smad3; source: HEK-293, transfected together with constitutively active Alk5, in lysate) MSSILPFTPPIVKRLLGWKKGEQNGQEEKWCEKAVKSLVKKLKKTGQLDELEKAITTQNVNTKCITIPRSLDGRLQVSHRKGLPHVIYCRLWRWPDLHSHHELRAMELCEFAFNMKKDEVCVNPYHYQRVETPVLPPVLVPRHTEIPAEFPPLDDYSHSIPENTNFPAGIEPQSNIPETPPPGYLSEDGETSDHQMNHSMDAGSPNLSPNPMSPAHNNLDLQPVTYCEPAFWCSISYYELNQRVGETFHASQPSMTVDGFTDPSNSERFCLGLLSNVNRNAAVELTRRHIGRGVRLYYIGGEVFAECLSDSAIFVQSPNCNQRYGWHPATVCKIPPGCNLKIFNNQEFAALLAQSVNQGFEAVYQLTRMCTIRMSFVKGWGAEYRRQTVTSTPCWIELHLNGPLQALDKVLTQMGSPSIRCSSVS | 1330% | 5% | 1% | 12%
